Source: article PMC5411485

Tested on: ScNsrR wild type, [4Fe-4S] holo (Streptomyces coelicolor)
Assay: EMSA
Details: EMSA: 10 mM Tris, 54 mM KCl, 0.3% glycerol, 1.32 mM glutathione, pH 7.2, on ice ~10 min; 5% PAGE in 1x TBE

**Q.** How did the K half ([4Fe-4S] protein:DNA ratio) turn out when hmpA1 promoter probe was run?
**A.** The K half ([4Fe-4S] protein:DNA ratio) was < 2.
